In US10087225B2, “Formulation of MK2 inhibitor peptides” (MOERAE MATRIX, INC., priority 2015, dated 2018):

Tests used:
Test in all cases: Kinase Profiling Assay
Type in all cases: biochemical
Details in all cases: for % activity: 100 μM
[1] = molecular target: SRPK1(h) (Homo sapiens, UniProt Q96SB4)
[2] = molecular target: Tie2(h) (Homo sapiens, UniProt Q02763)
[3] = molecular target: T1, SGK3(h) (Homo sapiens, UniProt Q96BR1)
T1 sequence (Q96BR1 1-496): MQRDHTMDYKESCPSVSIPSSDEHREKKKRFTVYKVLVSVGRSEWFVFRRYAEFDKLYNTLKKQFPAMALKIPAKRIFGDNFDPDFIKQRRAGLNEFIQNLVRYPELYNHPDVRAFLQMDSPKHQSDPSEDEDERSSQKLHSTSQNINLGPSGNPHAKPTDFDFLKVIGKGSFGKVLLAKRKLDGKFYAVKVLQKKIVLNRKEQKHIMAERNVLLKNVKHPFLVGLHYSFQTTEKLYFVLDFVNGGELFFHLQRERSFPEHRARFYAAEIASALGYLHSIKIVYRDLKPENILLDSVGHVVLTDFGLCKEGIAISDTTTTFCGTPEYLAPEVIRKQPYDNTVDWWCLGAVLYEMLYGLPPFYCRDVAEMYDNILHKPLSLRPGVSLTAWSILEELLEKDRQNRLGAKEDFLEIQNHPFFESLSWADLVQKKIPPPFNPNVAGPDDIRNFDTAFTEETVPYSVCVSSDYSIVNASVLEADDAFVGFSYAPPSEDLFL

[4] = molecular target: PTK5(h) (Homo sapiens, UniProt P42685)
Sequence of PTK5(h) (P42685 whole entry): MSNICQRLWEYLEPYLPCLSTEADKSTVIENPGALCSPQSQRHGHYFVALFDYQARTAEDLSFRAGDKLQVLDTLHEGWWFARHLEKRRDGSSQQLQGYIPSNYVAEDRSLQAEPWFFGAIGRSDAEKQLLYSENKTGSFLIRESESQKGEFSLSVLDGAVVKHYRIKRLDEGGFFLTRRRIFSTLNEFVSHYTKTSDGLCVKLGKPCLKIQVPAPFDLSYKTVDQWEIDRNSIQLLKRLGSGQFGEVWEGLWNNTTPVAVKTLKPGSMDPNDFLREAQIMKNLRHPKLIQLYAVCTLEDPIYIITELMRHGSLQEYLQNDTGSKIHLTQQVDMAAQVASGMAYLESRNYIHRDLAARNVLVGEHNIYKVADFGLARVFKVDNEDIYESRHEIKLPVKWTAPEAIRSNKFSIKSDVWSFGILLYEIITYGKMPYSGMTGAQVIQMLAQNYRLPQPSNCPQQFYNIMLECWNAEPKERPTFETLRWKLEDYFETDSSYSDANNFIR

[5] = molecular target: T2, EphB2(h) (Homo sapiens, UniProt P29323)
T2 sequence (P29323 19-1055): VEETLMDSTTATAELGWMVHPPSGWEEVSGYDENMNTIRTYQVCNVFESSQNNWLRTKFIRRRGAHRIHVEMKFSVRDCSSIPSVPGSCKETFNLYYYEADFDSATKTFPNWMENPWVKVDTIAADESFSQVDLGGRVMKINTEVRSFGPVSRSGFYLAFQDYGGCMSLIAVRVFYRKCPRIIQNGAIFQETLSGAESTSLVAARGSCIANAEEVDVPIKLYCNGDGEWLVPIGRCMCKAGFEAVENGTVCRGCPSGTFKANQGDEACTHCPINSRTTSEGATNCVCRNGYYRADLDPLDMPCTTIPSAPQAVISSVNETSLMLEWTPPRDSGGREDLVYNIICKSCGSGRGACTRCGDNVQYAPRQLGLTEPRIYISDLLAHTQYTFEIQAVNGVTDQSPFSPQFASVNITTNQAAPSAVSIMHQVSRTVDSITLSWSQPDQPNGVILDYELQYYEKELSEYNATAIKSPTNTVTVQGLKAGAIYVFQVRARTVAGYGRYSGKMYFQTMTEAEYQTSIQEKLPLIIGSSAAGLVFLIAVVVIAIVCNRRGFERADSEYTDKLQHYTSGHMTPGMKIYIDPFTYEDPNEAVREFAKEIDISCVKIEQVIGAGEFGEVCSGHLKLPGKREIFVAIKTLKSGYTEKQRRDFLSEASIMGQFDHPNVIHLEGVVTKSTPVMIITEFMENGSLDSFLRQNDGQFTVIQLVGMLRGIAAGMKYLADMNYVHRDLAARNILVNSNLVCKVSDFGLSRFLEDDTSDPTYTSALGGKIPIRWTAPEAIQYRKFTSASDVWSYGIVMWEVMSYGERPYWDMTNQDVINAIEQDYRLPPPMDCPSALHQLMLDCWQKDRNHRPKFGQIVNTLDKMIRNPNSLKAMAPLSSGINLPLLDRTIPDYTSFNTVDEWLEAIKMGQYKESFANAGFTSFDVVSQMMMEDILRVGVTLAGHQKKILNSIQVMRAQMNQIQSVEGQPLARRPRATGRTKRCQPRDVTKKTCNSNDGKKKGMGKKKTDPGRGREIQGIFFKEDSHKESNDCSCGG

[6] = molecular target: ALK(h) (Homo sapiens, UniProt Q9UM73)
Sequence of ALK(h) (Q9UM73 19-1620): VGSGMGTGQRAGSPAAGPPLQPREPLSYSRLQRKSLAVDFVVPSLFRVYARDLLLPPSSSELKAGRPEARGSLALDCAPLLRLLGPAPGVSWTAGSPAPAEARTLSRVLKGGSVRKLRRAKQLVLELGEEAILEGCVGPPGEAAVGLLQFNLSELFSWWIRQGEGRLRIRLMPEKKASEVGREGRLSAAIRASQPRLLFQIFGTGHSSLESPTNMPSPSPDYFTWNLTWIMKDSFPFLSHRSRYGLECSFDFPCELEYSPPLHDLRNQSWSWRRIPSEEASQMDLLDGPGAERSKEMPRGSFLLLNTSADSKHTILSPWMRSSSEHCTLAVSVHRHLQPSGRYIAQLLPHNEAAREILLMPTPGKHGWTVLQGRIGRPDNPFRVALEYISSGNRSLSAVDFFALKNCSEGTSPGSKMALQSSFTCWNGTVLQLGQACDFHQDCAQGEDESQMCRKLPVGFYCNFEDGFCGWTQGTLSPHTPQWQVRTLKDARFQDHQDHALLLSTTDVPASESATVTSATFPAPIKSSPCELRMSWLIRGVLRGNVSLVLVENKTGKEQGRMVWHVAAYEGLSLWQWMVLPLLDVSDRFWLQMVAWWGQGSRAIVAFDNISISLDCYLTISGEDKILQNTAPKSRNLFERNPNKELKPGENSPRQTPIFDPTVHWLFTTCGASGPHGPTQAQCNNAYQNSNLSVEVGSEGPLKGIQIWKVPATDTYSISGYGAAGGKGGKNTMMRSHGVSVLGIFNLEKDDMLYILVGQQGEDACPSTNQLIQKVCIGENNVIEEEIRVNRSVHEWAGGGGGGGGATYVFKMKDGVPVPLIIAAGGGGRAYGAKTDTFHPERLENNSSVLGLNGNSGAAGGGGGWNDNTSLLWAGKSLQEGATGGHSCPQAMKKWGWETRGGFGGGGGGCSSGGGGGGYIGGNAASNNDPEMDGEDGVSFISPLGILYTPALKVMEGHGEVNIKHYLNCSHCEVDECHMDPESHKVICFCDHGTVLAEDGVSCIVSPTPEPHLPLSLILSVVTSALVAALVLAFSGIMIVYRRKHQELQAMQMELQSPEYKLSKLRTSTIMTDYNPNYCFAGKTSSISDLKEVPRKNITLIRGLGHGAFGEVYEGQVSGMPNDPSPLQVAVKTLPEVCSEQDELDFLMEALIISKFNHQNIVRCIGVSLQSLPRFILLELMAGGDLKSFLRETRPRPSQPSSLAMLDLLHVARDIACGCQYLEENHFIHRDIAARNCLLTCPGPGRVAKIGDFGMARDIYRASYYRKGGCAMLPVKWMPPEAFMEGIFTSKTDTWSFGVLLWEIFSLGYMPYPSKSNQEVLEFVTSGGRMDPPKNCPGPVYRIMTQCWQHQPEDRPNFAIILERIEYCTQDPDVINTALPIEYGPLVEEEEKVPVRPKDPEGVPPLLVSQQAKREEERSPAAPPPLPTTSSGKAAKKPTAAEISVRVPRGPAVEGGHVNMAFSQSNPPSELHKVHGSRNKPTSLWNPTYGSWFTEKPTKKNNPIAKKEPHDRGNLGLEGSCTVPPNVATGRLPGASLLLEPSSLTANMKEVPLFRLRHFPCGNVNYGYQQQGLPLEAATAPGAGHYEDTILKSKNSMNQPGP

[7] = molecular target: T3, ULK2(h) (Homo sapiens, UniProt Q8IYT8)
T3 sequence (Q8IYT8 1-1036): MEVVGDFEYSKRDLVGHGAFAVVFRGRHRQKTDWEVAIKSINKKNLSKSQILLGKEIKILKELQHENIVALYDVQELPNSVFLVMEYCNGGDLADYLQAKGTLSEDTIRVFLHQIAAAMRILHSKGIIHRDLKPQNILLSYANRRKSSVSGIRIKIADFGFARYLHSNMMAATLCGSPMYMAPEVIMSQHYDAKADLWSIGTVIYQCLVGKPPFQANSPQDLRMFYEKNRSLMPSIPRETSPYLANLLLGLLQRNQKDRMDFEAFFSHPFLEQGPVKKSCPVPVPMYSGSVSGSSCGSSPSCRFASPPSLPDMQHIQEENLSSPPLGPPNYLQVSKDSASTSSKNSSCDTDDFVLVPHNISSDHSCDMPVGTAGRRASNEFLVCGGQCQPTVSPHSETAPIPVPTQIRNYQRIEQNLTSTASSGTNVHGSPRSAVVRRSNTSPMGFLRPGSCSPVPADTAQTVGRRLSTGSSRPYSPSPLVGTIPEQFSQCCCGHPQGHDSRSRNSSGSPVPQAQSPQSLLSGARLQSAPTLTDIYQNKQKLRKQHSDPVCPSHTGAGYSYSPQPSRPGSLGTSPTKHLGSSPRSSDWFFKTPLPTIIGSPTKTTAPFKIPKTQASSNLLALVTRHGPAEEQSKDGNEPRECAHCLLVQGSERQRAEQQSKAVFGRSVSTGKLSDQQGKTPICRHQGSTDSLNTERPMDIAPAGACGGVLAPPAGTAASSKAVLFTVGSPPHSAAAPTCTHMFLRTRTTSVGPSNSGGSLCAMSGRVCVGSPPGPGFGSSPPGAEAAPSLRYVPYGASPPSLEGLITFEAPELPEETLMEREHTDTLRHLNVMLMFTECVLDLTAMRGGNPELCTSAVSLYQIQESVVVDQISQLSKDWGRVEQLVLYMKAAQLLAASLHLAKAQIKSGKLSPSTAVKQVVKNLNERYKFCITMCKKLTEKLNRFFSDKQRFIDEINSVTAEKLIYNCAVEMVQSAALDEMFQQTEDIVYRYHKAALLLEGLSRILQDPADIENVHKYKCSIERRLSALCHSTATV

[8] = molecular target: Met(D1246H)(h) (Homo sapiens, UniProt P08581, D1228H)

Sequence of Tie2(h) (Q02763 23-1124): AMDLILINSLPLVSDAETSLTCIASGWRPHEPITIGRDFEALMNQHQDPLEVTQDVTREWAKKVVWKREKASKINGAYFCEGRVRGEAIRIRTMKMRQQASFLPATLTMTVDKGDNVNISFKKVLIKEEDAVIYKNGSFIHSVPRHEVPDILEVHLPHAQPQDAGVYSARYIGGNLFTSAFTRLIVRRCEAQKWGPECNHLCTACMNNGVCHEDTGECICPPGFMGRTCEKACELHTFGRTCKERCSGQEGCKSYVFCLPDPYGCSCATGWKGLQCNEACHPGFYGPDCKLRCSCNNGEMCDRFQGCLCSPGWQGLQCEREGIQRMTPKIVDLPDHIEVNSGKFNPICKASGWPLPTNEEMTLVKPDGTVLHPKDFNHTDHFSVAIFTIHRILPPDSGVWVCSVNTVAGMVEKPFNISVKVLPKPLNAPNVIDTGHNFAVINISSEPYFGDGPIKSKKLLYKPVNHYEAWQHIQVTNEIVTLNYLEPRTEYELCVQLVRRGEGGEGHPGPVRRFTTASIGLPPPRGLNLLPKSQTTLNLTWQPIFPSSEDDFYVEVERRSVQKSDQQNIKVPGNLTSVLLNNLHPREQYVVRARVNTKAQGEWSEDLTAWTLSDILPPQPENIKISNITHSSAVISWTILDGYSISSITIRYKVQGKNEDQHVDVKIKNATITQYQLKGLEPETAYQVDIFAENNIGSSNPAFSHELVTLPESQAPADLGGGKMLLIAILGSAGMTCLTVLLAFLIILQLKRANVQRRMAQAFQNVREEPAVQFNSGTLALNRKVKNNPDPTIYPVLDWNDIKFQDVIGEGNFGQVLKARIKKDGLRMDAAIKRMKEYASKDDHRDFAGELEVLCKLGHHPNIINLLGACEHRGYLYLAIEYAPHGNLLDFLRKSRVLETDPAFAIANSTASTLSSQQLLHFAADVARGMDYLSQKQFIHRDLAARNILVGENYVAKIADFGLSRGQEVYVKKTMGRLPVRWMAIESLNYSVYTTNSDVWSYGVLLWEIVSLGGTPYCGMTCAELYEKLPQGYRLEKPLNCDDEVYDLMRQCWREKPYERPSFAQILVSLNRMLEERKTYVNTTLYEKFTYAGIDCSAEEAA
Sequence of SRPK1(h) (Q96SB4 whole entry): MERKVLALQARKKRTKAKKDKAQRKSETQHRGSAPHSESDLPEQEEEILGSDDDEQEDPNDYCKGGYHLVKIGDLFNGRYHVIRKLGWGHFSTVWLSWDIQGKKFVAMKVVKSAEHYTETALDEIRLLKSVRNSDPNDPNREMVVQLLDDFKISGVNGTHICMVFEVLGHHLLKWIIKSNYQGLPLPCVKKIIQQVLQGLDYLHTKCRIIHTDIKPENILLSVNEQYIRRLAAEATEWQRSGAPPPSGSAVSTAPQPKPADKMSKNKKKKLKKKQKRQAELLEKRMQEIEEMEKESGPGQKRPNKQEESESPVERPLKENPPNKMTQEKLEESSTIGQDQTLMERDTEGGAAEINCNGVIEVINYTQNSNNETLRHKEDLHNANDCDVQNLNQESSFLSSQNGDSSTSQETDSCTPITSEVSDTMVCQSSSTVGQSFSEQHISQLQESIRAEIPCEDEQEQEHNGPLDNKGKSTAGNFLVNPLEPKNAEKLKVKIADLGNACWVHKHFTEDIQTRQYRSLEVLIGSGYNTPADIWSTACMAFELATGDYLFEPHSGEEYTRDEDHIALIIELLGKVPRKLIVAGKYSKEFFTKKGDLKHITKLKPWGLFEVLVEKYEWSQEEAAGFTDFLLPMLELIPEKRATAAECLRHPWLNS

Substance	% activity [1] [%]	% activity [2] [%]	% activity [3] [%]	% activity [4] [%]	% activity [5] [%]	% activity [6] [%]	% activity [7] [%]	% activity [8] [%]	activity at 100 µM [1] [%]	activity at 100 µM [2] [%]	activity at 100 µM [3] [%]	activity at 100 µM [4] [%]	activity at 100 µM [5] [%]	activity at 100 µM [6] [%]	activity at 100 µM [7] [%]	activity at 100 µM [8] [%]
YARAAARQARAKALNRQLGVA (Mammalian) [MMI-0200]	93	53	58	108	128	95	132	139								
H-YARAAARQARAKALARQLGVAA-OH [MMI-0100]									69	28	95	135	68	118	123	99
HRRIKAWLKKIKALARQLGVAA (Mammalian) [MMI-0500]	80	22	-3	96	70	12	124	150								
